Patent US8524664B2, “Methods of treating overproduction of cortisol using ACTH antagonist peptides” (Colorado Seminary, Which owns and Operates The Univeristy …, priority 2011, dated 2013)
“Also recorded” adds a separate entry of the source. Read-outs that look alike come from different tables or passages of the source.

Legend:
MC2R [1] = target: T1, MC2R (Homo sapiens, UniProt Q01718); assay: Inhibition of ACTH(1-24)-dependent hMC2R activation by co-incubated analog: cAMP in transfected CHO cells; type: cell-based; design: host or cells: CHO cells, transient transfection, pcDNA3.1
Experimental: (§1) FIG. 1. Inhibition of ACTH(1-24) by ACTH(15-24) peptide. For all experiments, Chinese Hamster Ovary (CHO) cells were transiently transfected with a human melanocortin receptor gene construct (MC2R for FIGS. 1-3) and a mouse MRAP1 gene, as described in the Examples section. Two days later, individual wells of transfected CHO cells (10^5 cells per well) were incubated with ACTH(1-24) at concentrations ranging from 10^−6 to 10^−12 M. For these experiments, each concentration of ACTH(1-24) was co-incubated with either no KKRRPVKVYP (SEQ ID NO:1) (filled circle), 10^−6 M KKRRPVKVYP (SEQ ID NO:1) (filled diamond), 10^−7 M KKRRPVKVYP (SEQ ID NO:1) (half-filled square), 10^−8 KKRRPVKVYP (SEQ ID NO:1) (circle in square), or 10^−9 M KKRRPVKVYP (SEQ ID NO:1) (open square). After a 15 minute incubation, the amount of cAMP produced in each well of CHO cells was measured. Each data point is a minimum of n=3. […] The ACTH analog ACTH(11-24) [KPVGKKRRPVKVYP; SEQ ID NO:7] at a concentration of 10^−6 M produced a 50% inhibition of ACTH(1-24) stimulation, but had no effect on ACTH(1-24) stimulation when tested at a concentration of 10^−7 M.
FIG. 2. Dose response curve for ACTH analog AT814. AT814 is a previously-described ACTH inhibitor (WO 2006/052468). For this experiment, individual wells of transfected CHO cells (as described for FIG. 1) were incubated with ACTH(1-24) at concentrations ranging from 10^−6 to 10^−12 M alone (open circle) or ACTH(1-24) and AT814 at a concentration of 10^−6 M (open square).
FIG. 3. Dose response curve for ACTH analog AT814. […] Open circles: ACTH(1-24) alone; open squares: ACTH(1-24)+AT814 (10^−7 M).
(§2) To test this hypothesis, a human MC2R gene construct was transiently co-transfected with a mouse MCR2R accessory protein 1 (MRAP1) gene into CHO cells and subsequently, cAMP production was measured.
(§3) Human hMC2R, Genbank Accession No. AY225229.1, was synthesized by GenScript with a V-5 epitope tag and inserted into a pcDNA3.1 vector. Mouse (Mus musculus) mMRAP1, Genbank Accession No. NM_029844, was also synthesized by GenScript with a FLAG epitope tag and inserted into pcDNA3.1 vectors.
(§4) The experiments were all done in transiently transfected CHO cells. The CHO cells were grown at 37° C. in a humidified 5% CO2 incubator in Kaighn's Modification of Ham's F-12 (2 mM glutamine, 1500 mg/L bicarbonate) with 10% fetal bovine serum, 5 mL pen/strep, and 1 mL normocin.
(§5) In order to functionally express hMC2R in heterologous cells, like CHO cells, the hMC2R construct must be co-transfected with a mammalian MRAP (melanocortin receptor accessory protein; Hinkle, P. M. and Sebag, J. A. (2009) Structure and function of the melanocortin 2 receptor accessory protein. Mol. Cell. Endocrinol. 300:25-31). CHO cells were transfected with 2 μg of hMC2R and mMRAP using a Cell Line Nucleofector Kit (Amaxa, Inc.) with solution T and program U-023. The cells were then plated on a white, 96-well plate a density of 1×10^5 cells per well. 48 hours after transfection, cells were stimulated with the appropriate ligands in serum-free CHO media for 15 minutes at 37° C. at concentrations ranging from 10^−5 M to 10^−10 M. After a 15 minute incubation, a direct cAMP EIA kit (Assay Designs, Ann Arbor, Mich.) was used to measure cAMP in the CHO cells.
(§6) All experimental treatments were performed in no less than triplicate, and then corrected for control values, which were obtained by using transfected cells that were left unstimulated. In each of the assays, maximal activation levels were between three to 10 times the control level. Corrected values were normalized to 100 nM ACTH activation. Average values and standard errors of the mean were graphed using KaleidaGraph software, and the […] value for each ligand was determined.
Target sequence in this assay (Q01718 whole entry): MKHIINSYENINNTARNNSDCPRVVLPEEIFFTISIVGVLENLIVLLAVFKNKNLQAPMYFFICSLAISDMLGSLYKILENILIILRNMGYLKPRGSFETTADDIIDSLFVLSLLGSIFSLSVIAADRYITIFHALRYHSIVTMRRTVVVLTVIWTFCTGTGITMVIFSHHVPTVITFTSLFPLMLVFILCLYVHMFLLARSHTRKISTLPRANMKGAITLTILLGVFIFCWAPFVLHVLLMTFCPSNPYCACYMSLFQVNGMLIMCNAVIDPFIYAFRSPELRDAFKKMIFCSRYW
Target sequence in this assay (Q9D159 whole entry partner): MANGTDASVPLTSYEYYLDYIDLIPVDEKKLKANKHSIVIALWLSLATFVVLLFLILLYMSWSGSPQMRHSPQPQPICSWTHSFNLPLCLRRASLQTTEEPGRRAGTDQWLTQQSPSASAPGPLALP

MC2R [2] = target: T1, MC2R; assay: Activation of hMC2R by ACTH analogs: cAMP production in CHO cells co-transfected with hMC2R and mouse MRAP1; type: cell-based; design: host or cells: CHO cells, transient transfection, pcDNA3.1; conditions: for MC2R activation relative to full-length ACTH / MC2R activation relative to full-length ACTH: fold drop in activity: analog alone, transfected CHO cells, cAMP after 15 min
Experimental: as §1, §2, §3, §4, §5, §6
Target sequence in this assay (Q01718 whole entry): as the sequence (Q01718 whole entry) above
Target sequence in this assay (Q9D159 whole entry partner): as the sequence (Q9D159 whole entry partner) above

MC2R [3] = target: T1, MC2R; assay: as above; type: cell-based; design: host or cells: CHO cells, transient transfection, pcDNA3.1; conditions: 10^-6 to 10^-12 M
Target sequence in this assay (Q01718 whole entry): as the sequence (Q01718 whole entry) above
Target sequence in this assay (Q9D159 whole entry partner): as the sequence (Q9D159 whole entry partner) above

MC2R [4] = target: T1, MC2R; conditions: from previous studies / literature, cited from earlier work
Target sequence in this assay (Q01718 whole entry, species assumed): as the sequence (Q01718 whole entry) above
Target sequence in this assay (Q8TCY5 whole entry partner, species assumed): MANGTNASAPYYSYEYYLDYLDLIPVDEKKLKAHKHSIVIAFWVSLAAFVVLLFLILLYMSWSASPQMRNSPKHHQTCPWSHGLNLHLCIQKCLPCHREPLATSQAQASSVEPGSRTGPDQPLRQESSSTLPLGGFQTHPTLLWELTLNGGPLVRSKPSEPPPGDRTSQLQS

human MC4R = target: T2, human MC4R (Homo sapiens, UniProt P32245); assay: Activation of human MC4R in hMC4R-transfected CHO cells (cAMP production); type: cell-based; conditions: analog at 10^-6 to 10^-12 M
T2 construct: expressed in transfected cells; host or cells: CHO cells, pcDNA3.1
T2 sequence (P32245 whole entry): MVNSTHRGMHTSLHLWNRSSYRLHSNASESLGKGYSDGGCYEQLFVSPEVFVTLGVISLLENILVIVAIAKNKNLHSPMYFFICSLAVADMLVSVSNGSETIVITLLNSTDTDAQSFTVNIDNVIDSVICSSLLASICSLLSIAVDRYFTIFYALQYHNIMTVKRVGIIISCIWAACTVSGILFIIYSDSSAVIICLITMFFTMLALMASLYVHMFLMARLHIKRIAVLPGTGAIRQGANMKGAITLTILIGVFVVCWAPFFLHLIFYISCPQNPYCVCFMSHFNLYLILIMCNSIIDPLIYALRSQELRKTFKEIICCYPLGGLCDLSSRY
Experimental: FIG. 4. Activation of human MC4R by ACTH analog AT814. Because AT814 has the HFRW (SEQ ID NO:8) motif, the hypothesis that this analog could activate the human MC4 receptor was tested. CHO cells were transfected with a human MC4R cDNA construct in a pcDNA3.1 vector.

[5] = analog at 10^-6 M co-incubated with ACTH(1-24) 10^-6 to 10^-12 M
[6] = analog at 10^-7 M co-incubated with ACTH(1-24) 10^-6 to 10^-12 M
[7] = analog at 10^-8 M co-incubated with ACTH(1-24)

KKRRPAAAA (synthetic adrenocorticotropin hormone (ACTH) analog)
inhibition of ACTH(1-24) activation of hMC2R (MC2R [1]; [5]): did not block

KKRRPVKVYP (synthetic adrenocorticotropin hormone analog ACTH(15-24) peptide, human ACTH residues 15-24, ACTH antagonist polypeptide) [ACTH antagonist polypeptide, residues 15-24 of human ACTH]
MC2R activation relative to full-length ACTH (MC2R [2]): No activity | inhibition of ACTH(1-24) activation of hMC2R (MC2R [1]; [5]): complete blockage | inhibition of ACTH(1-24) activation of hMC2R (MC2R [1]; analog at 10^-6 M co-incubated with ACTH(1-24) 10^-6 to 10^-12 M, listed as ACTH(15-24)): completely blocked | inhibition of ACTH(1-24) activation of hMC2R (MC2R [1]; [6]): complete blockage | inhibition of ACTH(1-24) activation of hMC2R (MC2R [1]; analog at 10^-7 M co-incubated with ACTH(1-24) 10^-6 to 10^-12 M, listed as ACTH(15-24)): completely blocked | drop in hMC2R activation by ACTH(1-24) (MC2R [1]; [7]): 34±5% | inhibition of ACTH(1-24) activation of hMC2R (MC2R [1]; [7]): partial blockage | inhibition of ACTH(1-24) activation of hMC2R (MC2R [1]; analog at 10^-9 M co-incubated with ACTH(1-24)): no effect | activation of hMC2R (cAMP production) by analog incubated alone (MC2R [3]): did not activate

KPVGKKRRPVKVYP (synthetic adrenocorticotropin hormone analog ACTH(11-24) peptide, human ACTH residues 11-24) [ACTH analog ACTH(11-24), reference compound]
inhibition of ACTH(1-24) stimulation (MC2R [1]; analog at 10^-6 M co-incubated with ACTH(1-24)): 50% | inhibition of ACTH(1-24) activation of hMC2R (MC2R [1]; [6]): no effect

NAc-SYSMEHFRWGKPV-NH2 [α-MSH]
activation of MC2R (previous studies) (MC2R [4]): cannot activate

RRPVKVYP (synthetic adrenocorticotropin hormone analog ACTH(17-24) peptide, human ACTH residues 17-24) [ACTH analog ACTH(17-24)]
MC2R activation relative to full-length ACTH (MC2R [2]): No activity | inhibition of ACTH(1-24) activation of hMC2R (MC2R [1]; [5]): did not block | inhibition of ACTH(1-24) activation of hMC2R (MC2R [1]; analog at 10^-6 M co-incubated with ACTH(1-24) 10^-6 to 10^-12 M, listed as ACTH(17-24)): no inhibitory effect

SYSMEAAAAGKPVGKKRRPVKVYP (synthetic adrenocorticotropin hormone (ACTH) analog)
MC2R activation relative to full-length ACTH (MC2R [2]): No activity

SYSMEHARWGKPVGKKRRPVKVYP (synthetic adrenocorticotropin hormone (ACTH) analog)
MC2R activation relative to full-length ACTH (MC2R [2]): No activity

SYSMEHFAWGKPVGKKRRPVKVYP (synthetic adrenocorticotropin hormone (ACTH) analog)
MC2R activation relative to full-length ACTH (MC2R [2]): No activity

SYSMEHFRWAAAAAKKRRPVKVYP (synthetic adrenocorticotropin hormone (ACTH) analog)
MC2R activation relative to full-length ACTH: fold drop in activity (MC2R [2]): 400 fold drop

SYSMEHFRWGKPVGAAAAAVKVYP (synthetic adrenocorticotropin hormone (ACTH) analog)
MC2R activation relative to full-length ACTH (MC2R [2]): No activity

SYSMEHFRWGKPVGAARRPVKVYP (synthetic adrenocorticotropin hormone (ACTH) analog)
MC2R activation relative to full-length ACTH: fold drop in activity (MC2R [2]): 100 fold drop

SYSMEHFRWGKPVGKKAAAVKVYP (synthetic adrenocorticotropin hormone (ACTH) analog)
MC2R activation relative to full-length ACTH: fold drop in activity (MC2R [2]): 100 fold drop

SYSMEHFRWGKPVGKKRRPVKVYP [reference compound]
activation of MC2R (previous studies) (MC2R [4]; listed as ACTH(1-24)): as potent an activator of MC2R as ACTH(1-39); also recorded: as fully as full-length human ACTH | activation of hMC2R (cAMP production) by analog incubated alone (MC2R [2]; 10^-6 to 10^-12 M, listed as ACTH(1-24)): robust standard curve; also recorded: produced cAMP in a dose dependent manner | MC2R activation relative to full-length ACTH (MC2R [2]): Full activity

SYSMEHFRWGKPVGKRAAWVKVYP (synthetic adrenocorticotropin hormone (ACTH) analog AT814 with modified KKRRP motif) [reference compound]
activation of human MC4R (cAMP production) (human MC4R): can activate; also recorded: stimulated the production of cAMP in a dose dependent manner | inhibition of ACTH(1-24) activation of hMC2R (MC2R [1]; [5]): competitive inhibitor; also recorded: completely inhibited | inhibition of ACTH(1-24) activation of hMC2R (MC2R [1]; [6]): ineffective; also recorded: no inhibitory effect
